Experimental data from US7112317.

Experiments:
human endoglin (human) [1] = biological target: human endoglin (human) (UniProt P17813); assay: FACS, indirect immunofluorescence on HUVEC, antibody at 10 µg/ml, MTSA control subtracted
human endoglin (human) [2] = biological target: human endoglin (human) (UniProt P17813); assay: competitive binding inhibition on HUVEC by FACS; unlabelled TEC-4 against biotinylated TEC-11 as competitor, ratio 1:1
human endoglin (human) [3] = biological target: human endoglin (human) (UniProt P17813); assay: cell-based or functional assay
human endoglin (human) [4] = biological target: human endoglin (human) (UniProt P17813); assay: FACS, postconfluent HUVEC stained with 20 µg/ml TEC-11, sorted endoglin^hi fraction; mean (SD) of 2 studies
human endoglin (human) [5] = biological target: human endoglin (human) (UniProt P17813); assay: FACS, postconfluent HUVEC stained with 20 µg/ml TEC-11, sorted endoglin^lo fraction; mean (SD) of 2 studies

| specific mean fluorescence intensity (MFI) (human endoglin (human) [1]) | percent blocking (human endoglin (human) [2]) | complement fixation: lysis of HUVEC with guinea-pig complement (trypan blue) (% lysis at 100 µg/ml) (human endoglin (human) [3]) | MFI (human endoglin (human) [4]) | MFI (human endoglin (human) [5]) | complement fixation relative to TEC-4 (human endoglin (human) [3]) | complement fixation: lysis of HUVEC with guinea-pig complement (trypan blue) (% lysis at 1 µg/ml) (human endoglin (human) [3]) | Substance |
| --- | --- | --- | --- | --- | --- | --- | --- |
| 200 | 11% | 48 | – | – | – | – | TEC-4 (antibody) |
| 200 | – | – | 270 | 61.6 | 100 fold | > 50 | TEC-11 (antibody) |
